# Test: crystallisation trials
# Conditions: glycan lost; control: wild type
protein,measurement,value
human lysosomal acid lipase (HLAL): enzymatically deglycosylated (protein) parent chain: MKMRFLGLVVCLVLWTLHSEGSGGKLTAVDPETNMNVSEIISYWGFPSEEYLVETEDGYILCLNRIPHGRKNHSDKGPKPVVFLQHGLLADSSNWVTNLANSSLGFILADAGFDVWMGNSRGNTWSRKHKTLSVSQDEFWAFSYDEMAKYDLPASINFILNKTGQEQVYYVGHSQGTTIGFIAFSQIPELAKRIKMFFALGPVASVAFCTSPMAKLGRLPDHLIKDLFGDKEFLPQSAFLKWLGTHVCTHVILKELCGNLCFLLCGFNERNLNMSRVDVYTTHSPAGTSVQNMLHWSQAVKFQKFQAFDWGSSAKNYFHYNQSYPPTYNVKDMLVPTAVWSGGHDWLADVYDVNILLTQITNLVFHESIPEWEHLDFIWGLDAPWRLYNKIINLMRKYQ,other: crystallisability,no change

# Source: publication PMC7397744
